Results on one protein are retold here after US20220054706A1 (KING ABDULLAH UNIVERSITY OF SCIENCE AND TECHNOLOGY, published 2022).

The data set deals with the molecule itself. The experiment in a line: 2D NMR (NOESY/TOCSY) of the self-assembling peptide in 90% H2O-10% D2O. How it is done:
2D NMR of peptide solution was carried out to study the spatial structure during the assembly process. These NMR spectra were recorded on a Bruker Avance III 600 MHz equipped with a 5 mm Z-gradient SmartProbe BB(F)-H-D (BrukerBioSpin™, Rheinstetten, Germany). The samples were prepared from 10 mg of peptide in a mixture of 900 μL of 1 mM 2,2-Dimethyl-2-silapentane-5-sulfonate (DSS) and 100 μL of D₂O. ¹H-NMR was recorded by collecting 32 scans using excitation sculping with gradients pulse program (zgesgp) for water suppression.¹⁰⁹ COSY and TOCSY were then conducted to see the correlation between hydrogens that were coupled to each other. COSY was performed using a time domain of 4096 (F2)×512 (F1), 16 number of scans, a pulse program of cosydfgpph19, and 3-9-19 pulse sequence for water suppression.¹¹⁰⁻¹¹² For TOCSY, the parameters with time domain of 8192 (F2)×512 (F1), 16 number of scans, a pulse program of dipsi2gpph19, and 3-9-19 pulse sequence for water suppression were set. Finally, the NOESY acquisition was carried out with a time-domain size of 2048 (F2)×512 (F1), 32 scan numbers, a pulse program of noesyesgpph19, a mixing time of 400 ms, and water suppression using 3-9-19 pulse sequence. Broker Topspin 3.5pI7 software was used in all NMR experiments for both data collection and spectral analyses.

B1: Ac-Ile-Val-Phe-Lys-NH2 (IVFK) (peptide)
peptide: Ac-IVFK-NH2
notes: Synthetic self-assembling tetrapeptide; In the NMR experiment it stood at 10 mg in 900 uL of 1 mM DSS plus 100 uL D2O; also called aromatic IVFK
B1: the binding result is “binds”.
